Experimental data published in patent US20140221281A1 (Sanofi, published 2014).
*1 amine or outer side, *2 acyl side, *3 side chain or, on linkers, in order; H or OH if unused. Where no end group is shown, it is not given here. Side-chain parts run from the residue outwards. [ ]: non-standard residue; d: D form. The star is where a group is joined. γGlu = O=C(O)[C@H](CCC(=O)[*:2])N[*:1]; Stearoyl = CCCCCCCCCCCCCCCCCC(=O)*; Palmitoyl = CCCCCCCCCCCCCCCC(=O)*; d(αMeK) = C[C@@](N)(CCCCN)C(=O)O; αMeOrn = C[C@](N)(CCCN)C(=O)O; αMeK = C[C@](N)(CCCCN)C(=O)O; Api = NC1(C(=O)O)CCNCC1; Aib = CC(C)(N)C(=O)O

T1: human GIP receptor (human, UniProt P48546 22-466)
T1 sequence (looked up): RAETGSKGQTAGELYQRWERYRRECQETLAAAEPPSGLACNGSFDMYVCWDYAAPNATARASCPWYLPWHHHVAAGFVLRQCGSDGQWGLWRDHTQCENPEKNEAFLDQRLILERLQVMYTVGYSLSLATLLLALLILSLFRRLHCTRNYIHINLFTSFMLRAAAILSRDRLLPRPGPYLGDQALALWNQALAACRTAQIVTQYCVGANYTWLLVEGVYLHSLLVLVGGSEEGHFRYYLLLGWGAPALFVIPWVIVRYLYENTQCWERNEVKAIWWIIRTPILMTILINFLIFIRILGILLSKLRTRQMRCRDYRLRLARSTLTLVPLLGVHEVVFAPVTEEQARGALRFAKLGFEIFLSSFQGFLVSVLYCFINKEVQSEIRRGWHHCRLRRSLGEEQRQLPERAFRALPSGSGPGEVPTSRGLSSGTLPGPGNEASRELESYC

B1: SEQ ID NO: 10 (peptide)
peptide: Y[Aib]EGTFTSDLSIQK([γGlu-Palmitoyl])EERAA[αMeOrn]EFIEWLKNTGPSSGAPPPS-NH2
modifications: N-terminus assumed
SMILES: CCCCCCCCCCCCCCCC(=O)N[C@@H](CCC(=O)NCCCC[C@H](NC(=O)[C@H](CCC(N)=O)NC(=O)[C@@H](NC(=O)[C@H](CO)NC(=O)[C@H](CC(C)C)NC(=O)[C@H](CC(=O)O)NC(=O)[C@H](CO)NC(=O)[C@@H](NC(=O)[C@H](Cc1ccccc1)NC(=O)[C@@H](NC(=O)CNC(=O)[C@H](CCC(=O)O)NC(=O)C(C)(C)NC(=O)[C@@H](N)Cc1ccc(O)cc1)[C@@H](C)O)[C@@H](C)O)[C@@H](C)CC)C(=O)N[C@@H](CCC(=O)O)C(=O)N[C@@H](CCC(=O)O)C(=O)N[C@@H](CCCNC(=N)N)C(=O)N[C@@H](C)C(=O)N[C@@H](C)C(=O)N[C@@](C)(CCCN)C(=O)N[C@@H](CCC(=O)O)C(=O)N[C@@H](Cc1ccccc1)C(=O)N[C@H](C(=O)N[C@@H](CCC(=O)O)C(=O)N[C@@H](Cc1c[nH]c2ccccc12)C(=O)N[C@@H](CC(C)C)C(=O)N[C@@H](CCCCN)C(=O)N[C@@H](CC(N)=O)C(=O)N[C@H](C(=O)NCC(=O)N1CCC[C@H]1C(=O)N[C@@H](CO)C(=O)N[C@@H](CO)C(=O)NCC(=O)N[C@@H](C)C(=O)N1CCC[C@H]1C(=O)N1CCC[C@H]1C(=O)N1CCC[C@H]1C(=O)N[C@@H](CO)C(N)=O)[C@@H](C)O)[C@@H](C)CC)C(=O)O
B2: SEQ ID NO: 8 (peptide)
peptide: Y[Aib]EGTFTSDLSIQK([γGlu-Palmitoyl])EERAA[Api]EFIEWLKNTGPSSGAPPPS-NH2
modifications: N-terminus assumed
SMILES: CCCCCCCCCCCCCCCC(=O)N[C@@H](CCC(=O)NCCCC[C@H](NC(=O)[C@H](CCC(N)=O)NC(=O)[C@@H](NC(=O)[C@H](CO)NC(=O)[C@H](CC(C)C)NC(=O)[C@H](CC(=O)O)NC(=O)[C@H](CO)NC(=O)[C@@H](NC(=O)[C@H](Cc1ccccc1)NC(=O)[C@@H](NC(=O)CNC(=O)[C@H](CCC(=O)O)NC(=O)C(C)(C)NC(=O)[C@@H](N)Cc1ccc(O)cc1)[C@@H](C)O)[C@@H](C)O)[C@@H](C)CC)C(=O)N[C@@H](CCC(=O)O)C(=O)N[C@@H](CCC(=O)O)C(=O)N[C@@H](CCCNC(=N)N)C(=O)N[C@@H](C)C(=O)N[C@@H](C)C(=O)NC1(C(=O)N[C@@H](CCC(=O)O)C(=O)N[C@@H](Cc2ccccc2)C(=O)N[C@H](C(=O)N[C@@H](CCC(=O)O)C(=O)N[C@@H](Cc2c[nH]c3ccccc23)C(=O)N[C@@H](CC(C)C)C(=O)N[C@@H](CCCCN)C(=O)N[C@@H](CC(N)=O)C(=O)N[C@H](C(=O)NCC(=O)N2CCC[C@H]2C(=O)N[C@@H](CO)C(=O)N[C@@H](CO)C(=O)NCC(=O)N[C@@H](C)C(=O)N2CCC[C@H]2C(=O)N2CCC[C@H]2C(=O)N2CCC[C@H]2C(=O)N[C@@H](CO)C(N)=O)[C@@H](C)O)[C@@H](C)CC)CCNCC1)C(=O)O
B3: SEQ ID NO: 12 (peptide)
peptide: Y[Aib]QGTFTSDLSKQK([γGlu-Stearoyl])DEQRA[αMeK]EFIEWLKSGGPSSGAPPPS-NH2
modifications: N-terminus assumed
SMILES: CCCCCCCCCCCCCCCCCC(=O)N[C@@H](CCC(=O)NCCCC[C@H](NC(=O)[C@H](CCC(N)=O)NC(=O)[C@H](CCCCN)NC(=O)[C@H](CO)NC(=O)[C@H](CC(C)C)NC(=O)[C@H](CC(=O)O)NC(=O)[C@H](CO)NC(=O)[C@@H](NC(=O)[C@H](Cc1ccccc1)NC(=O)[C@@H](NC(=O)CNC(=O)[C@H](CCC(N)=O)NC(=O)C(C)(C)NC(=O)[C@@H](N)Cc1ccc(O)cc1)[C@@H](C)O)[C@@H](C)O)C(=O)N[C@@H](CC(=O)O)C(=O)N[C@@H](CCC(=O)O)C(=O)N[C@@H](CCC(N)=O)C(=O)N[C@@H](CCCNC(=N)N)C(=O)N[C@@H](C)C(=O)N[C@@](C)(CCCCN)C(=O)N[C@@H](CCC(=O)O)C(=O)N[C@@H](Cc1ccccc1)C(=O)N[C@H](C(=O)N[C@@H](CCC(=O)O)C(=O)N[C@@H](Cc1c[nH]c2ccccc12)C(=O)N[C@@H](CC(C)C)C(=O)N[C@@H](CCCCN)C(=O)N[C@@H](CO)C(=O)NCC(=O)NCC(=O)N1CCC[C@H]1C(=O)N[C@@H](CO)C(=O)N[C@@H](CO)C(=O)NCC(=O)N[C@@H](C)C(=O)N1CCC[C@H]1C(=O)N1CCC[C@H]1C(=O)N1CCC[C@H]1C(=O)N[C@@H](CO)C(N)=O)[C@@H](C)CC)C(=O)O
B4: SEQ ID NO: 13 (peptide)
peptide: Y[Aib]QGTFTSDLSIQK([γGlu-Stearoyl])DEQRA[d(αMeK)]EFIEWLKSGGPSSGAPPPS-NH2
modifications: N-terminus assumed
SMILES: CCCCCCCCCCCCCCCCCC(=O)N[C@@H](CCC(=O)NCCCC[C@H](NC(=O)[C@H](CCC(N)=O)NC(=O)[C@@H](NC(=O)[C@H](CO)NC(=O)[C@H](CC(C)C)NC(=O)[C@H](CC(=O)O)NC(=O)[C@H](CO)NC(=O)[C@@H](NC(=O)[C@H](Cc1ccccc1)NC(=O)[C@@H](NC(=O)CNC(=O)[C@H](CCC(N)=O)NC(=O)C(C)(C)NC(=O)[C@@H](N)Cc1ccc(O)cc1)[C@@H](C)O)[C@@H](C)O)[C@@H](C)CC)C(=O)N[C@@H](CC(=O)O)C(=O)N[C@@H](CCC(=O)O)C(=O)N[C@@H](CCC(N)=O)C(=O)N[C@@H](CCCNC(=N)N)C(=O)N[C@@H](C)C(=O)N[C@](C)(CCCCN)C(=O)N[C@@H](CCC(=O)O)C(=O)N[C@@H](Cc1ccccc1)C(=O)N[C@H](C(=O)N[C@@H](CCC(=O)O)C(=O)N[C@@H](Cc1c[nH]c2ccccc12)C(=O)N[C@@H](CC(C)C)C(=O)N[C@@H](CCCCN)C(=O)N[C@@H](CO)C(=O)NCC(=O)NCC(=O)N1CCC[C@H]1C(=O)N[C@@H](CO)C(=O)N[C@@H](CO)C(=O)NCC(=O)N[C@@H](C)C(=O)N1CCC[C@H]1C(=O)N1CCC[C@H]1C(=O)N1CCC[C@H]1C(=O)N[C@@H](CO)C(N)=O)[C@@H](C)CC)C(=O)O
B5: SEQ ID NO: 14 (peptide)
peptide: Y[Aib]EGTFTSDLSIQK([γGlu-Stearoyl])DERAA[αMeK]EFIEWLKNTGPSSGAPPPS-NH2
modifications: N-terminus assumed
SMILES: CCCCCCCCCCCCCCCCCC(=O)N[C@@H](CCC(=O)NCCCC[C@H](NC(=O)[C@H](CCC(N)=O)NC(=O)[C@@H](NC(=O)[C@H](CO)NC(=O)[C@H](CC(C)C)NC(=O)[C@H](CC(=O)O)NC(=O)[C@H](CO)NC(=O)[C@@H](NC(=O)[C@H](Cc1ccccc1)NC(=O)[C@@H](NC(=O)CNC(=O)[C@H](CCC(=O)O)NC(=O)C(C)(C)NC(=O)[C@@H](N)Cc1ccc(O)cc1)[C@@H](C)O)[C@@H](C)O)[C@@H](C)CC)C(=O)N[C@@H](CC(=O)O)C(=O)N[C@@H](CCC(=O)O)C(=O)N[C@@H](CCCNC(=N)N)C(=O)N[C@@H](C)C(=O)N[C@@H](C)C(=O)N[C@@](C)(CCCCN)C(=O)N[C@@H](CCC(=O)O)C(=O)N[C@@H](Cc1ccccc1)C(=O)N[C@H](C(=O)N[C@@H](CCC(=O)O)C(=O)N[C@@H](Cc1c[nH]c2ccccc12)C(=O)N[C@@H](CC(C)C)C(=O)N[C@@H](CCCCN)C(=O)N[C@@H](CC(N)=O)C(=O)N[C@H](C(=O)NCC(=O)N1CCC[C@H]1C(=O)N[C@@H](CO)C(=O)N[C@@H](CO)C(=O)NCC(=O)N[C@@H](C)C(=O)N1CCC[C@H]1C(=O)N1CCC[C@H]1C(=O)N1CCC[C@H]1C(=O)N[C@@H](CO)C(N)=O)[C@@H](C)O)[C@@H](C)CC)C(=O)O
B6: SEQ ID NO: 9 (peptide)
peptide: Y[Aib]EGTFTSDLSIQK([γGlu-Palmitoyl])EERAA[d(αMeK)]EFIEWLKNTGPSSGAPPPS-NH2
modifications: N-terminus assumed
SMILES: CCCCCCCCCCCCCCCC(=O)N[C@@H](CCC(=O)NCCCC[C@H](NC(=O)[C@H](CCC(N)=O)NC(=O)[C@@H](NC(=O)[C@H](CO)NC(=O)[C@H](CC(C)C)NC(=O)[C@H](CC(=O)O)NC(=O)[C@H](CO)NC(=O)[C@@H](NC(=O)[C@H](Cc1ccccc1)NC(=O)[C@@H](NC(=O)CNC(=O)[C@H](CCC(=O)O)NC(=O)C(C)(C)NC(=O)[C@@H](N)Cc1ccc(O)cc1)[C@@H](C)O)[C@@H](C)O)[C@@H](C)CC)C(=O)N[C@@H](CCC(=O)O)C(=O)N[C@@H](CCC(=O)O)C(=O)N[C@@H](CCCNC(=N)N)C(=O)N[C@@H](C)C(=O)N[C@@H](C)C(=O)N[C@](C)(CCCCN)C(=O)N[C@@H](CCC(=O)O)C(=O)N[C@@H](Cc1ccccc1)C(=O)N[C@H](C(=O)N[C@@H](CCC(=O)O)C(=O)N[C@@H](Cc1c[nH]c2ccccc12)C(=O)N[C@@H](CC(C)C)C(=O)N[C@@H](CCCCN)C(=O)N[C@@H](CC(N)=O)C(=O)N[C@H](C(=O)NCC(=O)N1CCC[C@H]1C(=O)N[C@@H](CO)C(=O)N[C@@H](CO)C(=O)NCC(=O)N[C@@H](C)C(=O)N1CCC[C@H]1C(=O)N1CCC[C@H]1C(=O)N1CCC[C@H]1C(=O)N[C@@H](CO)C(N)=O)[C@@H](C)O)[C@@H](C)CC)C(=O)O

The binders below were run against T1, human GIP receptor (assay: cell-based or functional assay).

Binder | EC50 hGIP R [pM] (cAMP formation)
B1 | 7.1
B2 | 16.3
B3 | 27
B4 | 33.1
B5 | 4.5
B6 | 93.2

The binders below were run against human glucagon receptor (human, UniProt P47871 26-477) (assay: cell-based or functional assay).
Chain of human glucagon receptor (P47871 26-477): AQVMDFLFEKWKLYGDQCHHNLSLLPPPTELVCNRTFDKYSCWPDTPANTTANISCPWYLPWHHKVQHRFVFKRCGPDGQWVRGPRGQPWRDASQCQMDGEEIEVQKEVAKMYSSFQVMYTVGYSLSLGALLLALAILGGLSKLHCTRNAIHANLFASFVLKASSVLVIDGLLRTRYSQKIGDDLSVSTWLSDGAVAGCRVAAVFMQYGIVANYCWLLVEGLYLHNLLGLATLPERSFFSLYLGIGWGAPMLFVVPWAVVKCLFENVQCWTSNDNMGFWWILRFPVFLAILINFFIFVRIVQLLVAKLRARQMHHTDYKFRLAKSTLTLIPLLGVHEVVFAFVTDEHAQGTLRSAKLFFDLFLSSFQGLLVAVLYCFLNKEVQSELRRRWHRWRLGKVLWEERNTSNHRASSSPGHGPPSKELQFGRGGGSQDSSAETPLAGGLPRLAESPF

Binder | EC50 hGLUC R [pM] (cAMP formation)
B1 | 10400
B2 | 34700
B4 | 202
B5 | 4730
B6 | > 1e+06

What follows are binders tested against human GLP-1 receptor (human, UniProt P43220 24-463) (assay: cell-based or functional assay).

Binder | EC50 hGLP-1 R [pM] (cAMP formation)
B1 | 4.9
B2 | 4.7
B3 | 11.6
B4 | 13.6
B5 | 7.2
B6 | 13.5
